Here are results for 4 molecules from paper PMC6451107, “Structural insights reveal the specific recognition of roX RNA by the dsRNA-binding domains of the RNA helicase MLE and its indispensable role in dosage compensation in Drosophila”.

What is called Kd is the concentration at which binding is half-saturated.

Residue numbers refer to the chain shown, from its start. Numbers in names are those of the source.

Assay in all cases: fluorescence polarization; FP: 80 nM 3'-FAM RNA stock mixed 1:1 with protein, buffer D (composition not in material), 15 min, 20 C; EMSA: 1200 nM RNA stock mixed 1:1 with protein, buffer
Background: Fluorescence polarisation rises when a labelled molecule tumbles more slowly, as on binding a larger partner.

One series concerns the target MLE dsRBD2 (Drosophila, UniProt P24785 152-264). Particulars: protein: recombinant; tags: SUMO tag removed by ULP1; label: 3'-FAM; hairpin, 13 nt loop (C135-C147).
The target in another series is MLE dsRBD1 (Drosophila, UniProt P24785 1-87). Particulars: protein: recombinant; tags: SUMO tag removed by ULP1; label: 3'-FAM; hairpin, 13 nt loop (C135-C147).
The target in another series is MLE dsRBD1+2 S5A (Drosophila, UniProt P24785 1-264, S5A). The following applies: protein: recombinant; tags: SUMO tag removed by ULP1; label: 3'-FAM; hairpin, 13 nt loop (C135-C147).
In series [1] the target is MLE dsRBD1+2 N52A/K53A/K54A (Drosophila, UniProt P24785 1-264, N52A;K53A;K54A). Particulars: protein: recombinant; tags: SUMO tag removed by ULP1; label: 3'-FAM; hairpin, 13 nt loop (C135-C147).
The target in the next series is MLE dsRBD1+2 K4E/S5A (Drosophila, UniProt P24785 1-264, K4E;S5A). Particulars: protein: recombinant; tags: SUMO tag removed by ULP1; label: 3'-FAM; hairpin, 13 nt loop (C135-C147).
For the next series, the target named is MLE dsRBD1+2 H196E (Drosophila, UniProt P24785 1-264, H196E). Particulars: protein: recombinant; tags: SUMO tag removed by ULP1; label: 3'-FAM; hairpin, 13 nt loop (C135-C147).
In another series the target is MLE dsRBD1+2 WT (Drosophila, UniProt P24785 1-264). The following applies: protein: recombinant, tags: SUMO tag (N-terminal, with Ni-NTA purification) removed by ULP1, label: 3'-FAM, hairpin.
Another series concerns the target MLE dsRBD1+2 K229A (Drosophila, UniProt P24785 1-264, K229A). The following applies: protein: recombinant; tags: SUMO tag removed by ULP1; label: 3'-FAM; hairpin, 13 nt loop (C135-C147).
The target of another series is MLE dsRBD1+2 K4A/S5A (Drosophila, UniProt P24785 1-264, K4A;S5A). Particulars: protein: recombinant; tags: SUMO tag removed by ULP1; label: 3'-FAM; hairpin, 13 nt loop (C135-C147).
Series [2] deals with MLE dsRBD1+2 N223A/K224E/K225E/K229E (Drosophila, UniProt P24785 1-264, N223A;K224E;K225E;K229E). The following applies: protein: recombinant; tags: SUMO tag removed by ULP1; label: 3'-FAM; hairpin, 13 nt loop (C135-C147).
The target in the next series is MLE dsRBD1+2 E172A (Drosophila, UniProt P24785 1-264, E172A). Particulars: protein: recombinant; tags: SUMO tag removed by ULP1; label: 3'-FAM; hairpin, 13 nt loop (C135-C147).
The target of a further series is MLE dsRBD1+2 K4A (Drosophila, UniProt P24785 1-264, K4A). The following applies: protein: recombinant; tags: SUMO tag removed by ULP1; label: 3'-FAM; hairpin, 13 nt loop (C135-C147).
In a further series the target is MLE dsRBD1+2 H196A (Drosophila, UniProt P24785 1-264, H196A). The following applies: protein: recombinant; tags: SUMO tag removed by ULP1; label: 3'-FAM; hairpin, 13 nt loop (C135-C147).
Another series concerns the target MLE dsRBD1+2 K171A (Drosophila, UniProt P24785 1-264, K171A). The following applies: protein: recombinant; tags: SUMO tag removed by ULP1; label: 3'-FAM; hairpin, 13 nt loop (C135-C147).
Another series has as its target MLE dsRBD1+2 E195A (Drosophila, UniProt P24785 1-264, E195A). Particulars: protein: recombinant; tags: SUMO tag removed by ULP1; label: 3'-FAM; hairpin, 13 nt loop (C135-C147).
The target in a further series is MLE dsRBD1+2 K171E (Drosophila, UniProt P24785 1-264, K171E). The following applies: protein: recombinant; tags: SUMO tag removed by ULP1; label: 3'-FAM; hairpin, 13 nt loop (C135-C147).
The target of series [3] is MLE dsRBD1+2 N52A/K53E/K54E/K58E (Drosophila, UniProt P24785 1-264, N52A;K53E;K54E;K58E). The following applies: protein: recombinant; tags: SUMO tag removed by ULP1; label: 3'-FAM; hairpin, 13 nt loop (C135-C147).
The next series addresses MLE dsRBD1+2 K58A (Drosophila, UniProt P24785 1-264, K58A). The following applies: protein: recombinant; tags: SUMO tag removed by ULP1; label: 3'-FAM; hairpin, 13 nt loop (C135-C147).
Series [4] deals with MLE dsRBD1+2 N223A/K224A/K225A (Drosophila, UniProt P24785 1-264, N223A;K224A;K225A). The following applies: protein: recombinant; tags: SUMO tag removed by ULP1; label: 3'-FAM; hairpin, 13 nt loop (C135-C147).
Another series has as its target MLE dsRBD1+2 N29A (Drosophila, UniProt P24785 1-264, N29A). The following applies: protein: recombinant; tags: SUMO tag removed by ULP1; label: 3'-FAM; hairpin, 13 nt loop (C135-C147).
For the next series, the target named is MLE dsRBD1+2 K4E (Drosophila, UniProt P24785 1-264, K4E). The following applies: protein: recombinant; tags: SUMO tag removed by ULP1; label: 3'-FAM; hairpin, 13 nt loop (C135-C147).
Another series deals with MLE dsRBD1+2 N175A (Drosophila, UniProt P24785 1-264, N175A). The following applies: protein: recombinant; tags: SUMO tag removed by ULP1; label: 3'-FAM; hairpin, 13 nt loop (C135-C147).
A further series deals with MLE dsRBD1+2 K171E/N175A (Drosophila, UniProt P24785 1-264, K171E;N175A). The following applies: protein: recombinant; tags: SUMO tag removed by ULP1; label: 3'-FAM; hairpin, 13 nt loop (C135-C147).

B1: R2H1 55mer (FAM) (structured_RNA)
RNA: GCUUUAGAGAUCGUUUCGAAUCACAUUGAUAAUCGUUCGAAACGUUCUCCGAAGC
For B1, the binding signal in the series with MLE dsRBD2 was approximately 4.5 fold weaker than dsRBD1+2; with MLE dsRBD1, approximately 44 fold weaker than dsRBD1+2. For the same molecule, the dissociation constant Kd with MLE dsRBD1+2 S5A amounted to 1.8 ± 0.24 µM; in [1], 7.7 ± 0.36 µM; in the series with MLE dsRBD1+2 K4E/S5A it was 8.05 ± 0.34 µM; with MLE dsRBD1+2 H196E, 7.24 ± 0.65 µM; in the series with MLE dsRBD1+2 WT (13 nt loop (C135-C147)), 0.2 ± 0.03 µM; in the series with MLE dsRBD1+2 K229A it was 0.88 ± 0.18 µM. The Kd is 4.49 ± 0.54 µM with MLE dsRBD1+2 K4A/S5A; 60.1 ± 6.55 µM in series [2]; 0.18 ± 0.04 µM with MLE dsRBD1+2 E172A; 4.18 ± 0.27 µM with MLE dsRBD1+2 K4A; 3.02 ± 0.2 µM with MLE dsRBD1+2 H196A; 4.58 ± 0.68 µM with MLE dsRBD1+2 K171A. Moreover, the Kd with MLE dsRBD1+2 E195A was 0.15 ± 0.03 µM; in the series with MLE dsRBD1+2 K171E it was 8.21 ± 0.26 µM; in [3] it was 12.5 ± 1.51 µM; in the series with MLE dsRBD1+2 K58A, 2.38 ± 0.13 µM; in series [4] it was 18.9 ± 1.45 µM; in the series with MLE dsRBD1+2 N29A, 0.43 ± 0.07 µM. The Kd with MLE dsRBD1+2 K4E came to 6.55 ± 0.56 µM; in the series with MLE dsRBD1+2 N175A, 1.31 ± 0.26 µM; in the series with MLE dsRBD1+2 K171E/N175A, 10.3 ± 1.14 µM.

B2: R2H1 U118C/A119G (structured_RNA)
RNA: B1 RNA with U5C, A6G
Consider B2, for which the Kd with MLE dsRBD1+2 WT worked out at 0.42 ± 0.06 µM.

B3: R2H1 U134C/C135G (structured_RNA)
RNA: B1 RNA with U21C, C22G
For the molecule B3, the Kd in the series with MLE dsRBD1+2 WT stood at 0.43 ± 0.05 µM.

B4: R2H1 U124A (structured_RNA)
RNA: B1 RNA with U11A
On to B4, for which, in the series with MLE dsRBD1+2 WT, the Kd came out at 1.03 ± 0.12 µM.
